Measured values published in the supplement of paper PMC10065799, “High-throughput profiling of sequence recognition by tyrosine kinases and SH2 domains using bacterial peptide display” (eLife, 2023).

molecular target: FGFR3 (UniProt P22607); assay: phosphorylation enrichment, bacterial display (enrichment ratio); higher = better substrate or ligand; peptides without Tyr show the background
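Further: 11-residue human phosphosite peptides and single-mutation variants displayed on the E. coli surface, counted by deep sequencing, each peptide's frequency after selection divided by its frequency in the unselected input library; frequency after pTyr selection over input frequency; kinase dosed for 20-30% of maximal phosphorylation in three min.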

Chain of FGFR3 (P22607 whole entry, looked up): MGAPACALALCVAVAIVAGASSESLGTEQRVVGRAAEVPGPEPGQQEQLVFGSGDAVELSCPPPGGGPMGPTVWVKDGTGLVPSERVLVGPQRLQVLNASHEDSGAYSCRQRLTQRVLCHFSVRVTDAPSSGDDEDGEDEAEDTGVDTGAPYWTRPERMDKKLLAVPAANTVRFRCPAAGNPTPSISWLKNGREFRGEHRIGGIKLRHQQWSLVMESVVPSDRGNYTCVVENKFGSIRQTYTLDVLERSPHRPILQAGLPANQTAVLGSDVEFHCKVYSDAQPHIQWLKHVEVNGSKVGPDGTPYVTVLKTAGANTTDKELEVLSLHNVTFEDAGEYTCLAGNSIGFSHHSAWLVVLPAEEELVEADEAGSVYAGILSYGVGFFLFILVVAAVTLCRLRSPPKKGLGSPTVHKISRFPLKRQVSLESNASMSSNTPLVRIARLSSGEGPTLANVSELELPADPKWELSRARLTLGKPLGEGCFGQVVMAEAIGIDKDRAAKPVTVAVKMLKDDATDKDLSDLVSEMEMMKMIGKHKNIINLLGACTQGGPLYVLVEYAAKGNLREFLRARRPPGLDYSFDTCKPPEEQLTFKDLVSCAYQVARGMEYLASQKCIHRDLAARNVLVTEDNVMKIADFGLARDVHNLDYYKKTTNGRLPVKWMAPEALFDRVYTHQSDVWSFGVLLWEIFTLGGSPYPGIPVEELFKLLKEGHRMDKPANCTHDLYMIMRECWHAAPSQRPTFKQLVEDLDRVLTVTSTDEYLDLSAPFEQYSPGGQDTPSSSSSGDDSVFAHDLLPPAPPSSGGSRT

Sequence | phosphorylation enrichment
LEVETYRRLLD [KRT12_Y429_I426V] | 0.625
KGKLIYLLRDS [NXPE1_Y350_G353R] | 0.599
AAVLNYKAGRD [GRIN2A_Y737] | 0.379
QVMDGYPIPIG [MMP14_Y353_M355I] | 0.572
CSHKFYGKQCC [ADAMTS16_Y1211] | 0.499
MHDSNYVSKGS [PDGFRA_Y849] | 0.459
KDLPNYNWKSF [KISS1_Y112_N115K] | 0.598
RREGVYRNNID [PTEN_Y46_L42R] | 0.516
FLNSIYQSRDE [ROS1_Y2227_K2228Q] | 0.785
FSAGTYPRMEE [SYCN_Y108_L111M] | 0.547
PSSNLYFRWLT [CNGA3_Y168_YF] | 1.33
IDAVCYFRMEN [NPHS2_Y194_I192V_YF] | 1.34
HNVAIYEGYAL [ACTC1_Y168_P166A] | 0.969
DEDFLCREELA [POR_Y575_Y575C_YF] | 0.846
YEEDSYSHVMA [FDPS_Y388_I391V] | 1.27
ASTHVYQIMNH [ITK_Y588] | 0.423
EDGFAYVPLKD [PRIM2_Y208] | 0.759

Sequence | phosphorylation enrichment
DDSSAYRSVDE [BCKDHA_Y345] | 0.707
ARVDTYCRHNF [HLA-DRB1_Y107_A103R_YF] | 0.53
LTFHMYADPNI [SOS1_Y618_F623I_YF] | 2.09
FGMQLYQKFMH [GRB14_Y347_N349K_YF] | 0.784
ADYYDYGRGLS [KHDRBS3_Y304_H306R] | 15.5
EMFNPCYGLFE [NEDD4L_Y679_Y679C] | 0.713
QGFDTYFGYLL [ARSB_Y165_R160Q] | 5.48
SENYTYIWWLN [PSG4_Y271_K267E] | 1.82
NRLNDYIFSFD [RARS1_Y516] | 0.729
KPLMPYMRYSR [SMARCE1_Y73] | 0.431
RPYRPYIIRGM [LRP5_Y1531] | 0.845
SSWPGYVRPLP [HSPB1_Y54] | 0.458
FRARAYSFRGP [CHGA_Y381_G382S] | 0.534
PQGVGYPPQQQ [EP300_Y2219] | 0.871
RGYRQDAYDGK [HLA-A_Y140] | 0.509
SVTYTYSPALN [TP53_Y126_C124Y] | 1.34

tested on: Fer (mouse); assay: as above

Sequence | phosphorylation enrichment
LEVETYRRLLD [KRT12_Y429_I426V] | 0.439
KGKLIYLLRDS [NXPE1_Y350_G353R] | 0.492
AAVLNYKAGRD [GRIN2A_Y737] | 0.342
QVMDGYPIPIG [MMP14_Y353_M355I] | 0.56
CSHKFYGKQCC [ADAMTS16_Y1211] | 0.448
MHDSNYVSKGS [PDGFRA_Y849] | 0.393
KDLPNYNWKSF [KISS1_Y112_N115K] | 0.464
RREGVYRNNID [PTEN_Y46_L42R] | 0.469
FLNSIYQSRDE [ROS1_Y2227_K2228Q] | 0.548
FSAGTYPRMEE [SYCN_Y108_L111M] | 0.417
PSSNLYFRWLT [CNGA3_Y168_YF] | 1.02
IDAVCYFRMEN [NPHS2_Y194_I192V_YF] | 0.641
HNVAIYEGYAL [ACTC1_Y168_P166A] | 19.7
DEDFLCREELA [POR_Y575_Y575C_YF] | 0.486
YEEDSYSHVMA [FDPS_Y388_I391V] | 1.64
ASTHVYQIMNH [ITK_Y588] | 1.34
EDGFAYVPLKD [PRIM2_Y208] | 0.492

Sequence | phosphorylation enrichment
DDSSAYRSVDE [BCKDHA_Y345] | 0.721
ARVDTYCRHNF [HLA-DRB1_Y107_A103R_YF] | 0.433
LTFHMYADPNI [SOS1_Y618_F623I_YF] | 1.25
FGMQLYQKFMH [GRB14_Y347_N349K_YF] | 1.92
ADYYDYGRGLS [KHDRBS3_Y304_H306R] | 1.22
EMFNPCYGLFE [NEDD4L_Y679_Y679C] | 1.14
QGFDTYFGYLL [ARSB_Y165_R160Q] | 6.45
SENYTYIWWLN [PSG4_Y271_K267E] | 0.694
NRLNDYIFSFD [RARS1_Y516] | 0.424
KPLMPYMRYSR [SMARCE1_Y73] | 0.384
RPYRPYIIRGM [LRP5_Y1531] | 0.536
SSWPGYVRPLP [HSPB1_Y54] | 0.459
FRARAYSFRGP [CHGA_Y381_G382S] | 0.456
PQGVGYPPQQQ [EP300_Y2219] | 0.46
RGYRQDAYDGK [HLA-A_Y140] | 0.764
SVTYTYSPALN [TP53_Y126_C124Y] | 0.621

molecular target: Fes (UniProt P07332); assay: as above
Sequence (P07332 whole entry, looked up): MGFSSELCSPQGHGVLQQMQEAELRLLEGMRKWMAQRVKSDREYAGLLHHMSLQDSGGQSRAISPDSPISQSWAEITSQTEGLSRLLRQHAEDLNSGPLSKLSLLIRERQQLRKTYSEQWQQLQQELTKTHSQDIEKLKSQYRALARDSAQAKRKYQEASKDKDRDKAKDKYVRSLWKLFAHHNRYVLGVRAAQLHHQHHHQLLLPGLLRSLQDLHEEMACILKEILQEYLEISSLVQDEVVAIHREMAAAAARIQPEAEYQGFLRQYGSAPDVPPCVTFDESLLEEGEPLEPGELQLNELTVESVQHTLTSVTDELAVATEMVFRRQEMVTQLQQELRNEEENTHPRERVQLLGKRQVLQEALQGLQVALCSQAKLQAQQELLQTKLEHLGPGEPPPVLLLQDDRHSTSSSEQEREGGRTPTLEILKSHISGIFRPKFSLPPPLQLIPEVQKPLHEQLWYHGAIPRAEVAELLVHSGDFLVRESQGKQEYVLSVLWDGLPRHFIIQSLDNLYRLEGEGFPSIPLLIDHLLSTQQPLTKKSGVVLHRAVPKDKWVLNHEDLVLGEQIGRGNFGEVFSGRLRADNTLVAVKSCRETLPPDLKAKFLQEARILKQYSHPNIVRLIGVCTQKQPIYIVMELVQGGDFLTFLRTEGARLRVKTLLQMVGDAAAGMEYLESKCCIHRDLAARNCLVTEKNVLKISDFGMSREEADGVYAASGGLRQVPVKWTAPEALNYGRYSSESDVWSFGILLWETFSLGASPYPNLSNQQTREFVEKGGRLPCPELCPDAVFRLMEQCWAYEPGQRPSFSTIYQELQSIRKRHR

Sequence | phosphorylation enrichment
LEVETYRRLLD [KRT12_Y429_I426V] | 0.797
KGKLIYLLRDS [NXPE1_Y350_G353R] | 0.964
AAVLNYKAGRD [GRIN2A_Y737] | 0.482
QVMDGYPIPIG [MMP14_Y353_M355I] | 0.715
CSHKFYGKQCC [ADAMTS16_Y1211] | 0.673
MHDSNYVSKGS [PDGFRA_Y849] | 0.73
KDLPNYNWKSF [KISS1_Y112_N115K] | 0.865
RREGVYRNNID [PTEN_Y46_L42R] | 0.925
FLNSIYQSRDE [ROS1_Y2227_K2228Q] | 0.764
FSAGTYPRMEE [SYCN_Y108_L111M] | 0.65
PSSNLYFRWLT [CNGA3_Y168_YF] | 1.2
IDAVCYFRMEN [NPHS2_Y194_I192V_YF] | 1.99
HNVAIYEGYAL [ACTC1_Y168_P166A] | 2.5
DEDFLCREELA [POR_Y575_Y575C_YF] | 1.38
YEEDSYSHVMA [FDPS_Y388_I391V] | 1.17
ASTHVYQIMNH [ITK_Y588] | 0.722
EDGFAYVPLKD [PRIM2_Y208] | 1.27

Sequence | phosphorylation enrichment
DDSSAYRSVDE [BCKDHA_Y345] | 1.29
ARVDTYCRHNF [HLA-DRB1_Y107_A103R_YF] | 0.992
LTFHMYADPNI [SOS1_Y618_F623I_YF] | 2.48
FGMQLYQKFMH [GRB14_Y347_N349K_YF] | 1
ADYYDYGRGLS [KHDRBS3_Y304_H306R] | 0.831
EMFNPCYGLFE [NEDD4L_Y679_Y679C] | 1.49
QGFDTYFGYLL [ARSB_Y165_R160Q] | 1.64
SENYTYIWWLN [PSG4_Y271_K267E] | 1.33
NRLNDYIFSFD [RARS1_Y516] | 1.03
KPLMPYMRYSR [SMARCE1_Y73] | 0.761
RPYRPYIIRGM [LRP5_Y1531] | 1.4
SSWPGYVRPLP [HSPB1_Y54] | 0.648
FRARAYSFRGP [CHGA_Y381_G382S] | 0.591
PQGVGYPPQQQ [EP300_Y2219] | 1.17
RGYRQDAYDGK [HLA-A_Y140] | 0.677
SVTYTYSPALN [TP53_Y126_C124Y] | 1.16

molecular target: Fyn (UniProt P06241); assay: as above
Sequence (P06241 whole entry, looked up): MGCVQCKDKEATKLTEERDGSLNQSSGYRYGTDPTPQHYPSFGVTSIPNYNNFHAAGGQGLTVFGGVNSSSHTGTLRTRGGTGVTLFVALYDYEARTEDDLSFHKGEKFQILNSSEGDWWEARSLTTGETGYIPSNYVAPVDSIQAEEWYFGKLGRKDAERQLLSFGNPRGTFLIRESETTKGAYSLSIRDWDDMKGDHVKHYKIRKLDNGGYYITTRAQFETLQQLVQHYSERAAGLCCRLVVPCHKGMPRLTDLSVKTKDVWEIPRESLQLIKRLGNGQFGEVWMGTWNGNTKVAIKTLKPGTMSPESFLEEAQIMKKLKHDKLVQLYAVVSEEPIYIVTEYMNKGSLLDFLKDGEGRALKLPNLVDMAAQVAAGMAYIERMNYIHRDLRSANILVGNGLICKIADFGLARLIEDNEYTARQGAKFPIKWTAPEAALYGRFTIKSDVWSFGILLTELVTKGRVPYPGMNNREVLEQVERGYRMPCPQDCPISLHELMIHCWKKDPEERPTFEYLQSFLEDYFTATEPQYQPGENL

Sequence | phosphorylation enrichment
LEVETYRRLLD [KRT12_Y429_I426V] | 0.421
KGKLIYLLRDS [NXPE1_Y350_G353R] | 0.49
AAVLNYKAGRD [GRIN2A_Y737] | 0.397
QVMDGYPIPIG [MMP14_Y353_M355I] | 0.592
CSHKFYGKQCC [ADAMTS16_Y1211] | 0.346
MHDSNYVSKGS [PDGFRA_Y849] | 0.535
KDLPNYNWKSF [KISS1_Y112_N115K] | 0.438
RREGVYRNNID [PTEN_Y46_L42R] | 0.664
FLNSIYQSRDE [ROS1_Y2227_K2228Q] | 4.07
FSAGTYPRMEE [SYCN_Y108_L111M] | 0.361
PSSNLYFRWLT [CNGA3_Y168_YF] | 0.886
IDAVCYFRMEN [NPHS2_Y194_I192V_YF] | 0.653
HNVAIYEGYAL [ACTC1_Y168_P166A] | 15.4
DEDFLCREELA [POR_Y575_Y575C_YF] | 0.528
YEEDSYSHVMA [FDPS_Y388_I391V] | 0.775
ASTHVYQIMNH [ITK_Y588] | 1.39
EDGFAYVPLKD [PRIM2_Y208] | 0.479

Sequence | phosphorylation enrichment
DDSSAYRSVDE [BCKDHA_Y345] | 0.547
ARVDTYCRHNF [HLA-DRB1_Y107_A103R_YF] | 0.439
LTFHMYADPNI [SOS1_Y618_F623I_YF] | 0.747
FGMQLYQKFMH [GRB14_Y347_N349K_YF] | 1.56
ADYYDYGRGLS [KHDRBS3_Y304_H306R] | 6.79
EMFNPCYGLFE [NEDD4L_Y679_Y679C] | 4.58
QGFDTYFGYLL [ARSB_Y165_R160Q] | 9.48
SENYTYIWWLN [PSG4_Y271_K267E] | 0.403
NRLNDYIFSFD [RARS1_Y516] | 0.461
KPLMPYMRYSR [SMARCE1_Y73] | 0.432
RPYRPYIIRGM [LRP5_Y1531] | 0.987
SSWPGYVRPLP [HSPB1_Y54] | 0.52
FRARAYSFRGP [CHGA_Y381_G382S] | 0.418
PQGVGYPPQQQ [EP300_Y2219] | 0.573
RGYRQDAYDGK [HLA-A_Y140] | 0.671
SVTYTYSPALN [TP53_Y126_C124Y] | 0.967
